Columns and labels:
Test in all cases: purified protein, by the assay type
[1] = substrate: NCCc1ccc(O)cc1; settings: pH 7.4, 37.0 °C
Protocol: (§1) The enzymatic activity of recombinant VAP-1 and inhibitor potency was determined using a variation of the fluorometric assay for measuring hydrogen peroxide formation [22]. Briefly, the assay measures the H2O2 generated during the oxidative deamination of an amine substrate (BA for inhibition purposes) by converting Amplex® Red to the fluorescent product, resorufin, via horseradish peroxidase (HRP). […] Stock solutions of Amplex Red (1 mM), HRP (10 U/mL), the substrates (200 μM BA for inhibition), and inhibitor were prepared in reaction buffer and added to the appropriate wells, that the final concentration in each well was 0.05 mM Amplex Red, 0.5 U/mL HRP, and 50 μM BA (saturating condition) in a total reaction volume of 0.1 mL.
(§2) Standard curves were prepared for each plate by serially diluting H2O2 in reaction buffer with equivalent concentrations of Amplex Red and HRP. A 10 μM solution of resorufin was prepared in reaction buffer and was dispensed in duplicate as the positive control for maximum fluorescence. Plates were incubated for 30 minutes at 37°C, protected from light under foil to minimize the resorufin artifactually formed when Amplex Red is exposed to light [28]. The plate was read at 530/35 emission and 590/35 excitation. The mean fluorescence of the background was subtracted from the mean fluorescence of the inhibitor concentration in the presence of BA. The percent control was calculated using equation (1). […] (1) %control=average fluorescence with inhibitor−background/average fluorescence of reaction without inhibitor−background×100, (2) %inhibition=100−%control.
(§3) Both substrates were incubated with recombinant VAP-1 in triplicate on three separate plates.

[2] = substrate: NCc1ccccc1; settings: pH 7.4, 37.0 °C
Protocol: as §1, §2, §3

[3] = substrate: NCCc1ccccc1; settings: other: recombinant human VAP-1, substrate; pH 7.4; 37.0 °C
Protocol: as §1, §2, §3

[4] = other: recombinant rat VAP-1, substrate
[5] = other: recombinant human VAP-1, substrate
[6] = other: recombinant mouse VAP-1, substrate

B1: recombinant rat VAP-1 (Rattus norvegicus) (protein)
chain: RSGDGGRLSQPLHCPSVLPSVQPQTHPGQSQPFADLSPEELTAVMSFLIKHLGPGLVDAAQARPSDNCVFSVELQLPAKAAALAHLDRGGPPPVREALAIIFFGGQPKPNVSELVVGPLPHPSYMRDVTVERHGGPLPYYRRPVLTREYQDIQEMIFHRELPQASGLLHHCCFYKRQGHNLLKMTTAPRGLQSGDRATWFGIYYNLSGAGFYPHPIGLELLVDHKALDPALWTIQKVFYQGRYYESLTQLEDMFEAGLVNVVLVPDNGTGGSWSLKSSVPPGRAPPLQFHPEGPRFSVQGSQVRSSLWAFSFGLGAFSGPRIFDIRFQGERVAYEISVQEAIALYGGNSPASMSTCYMDGSFGIGKYSTPLTRGVDCPYLATYVDWHFLLESQTPKTLRDAFCVFEQNQGLPLRRHHSDFYSHYFGGVVETVLVVRSVATLLNYDYVWDMVFHSNGAIEVKFHATGYITSAFFFGAGEKFGNRVAEHTLGTVHTHNAHFKVDLDVAGLKNWAWAEDLAFVPMNVPWQPEFQMQRLQVTRKLLETEEEAAFPLGNATPRYLYLASNHSNKWGHRRGYRIQILSFAGKPLPQESPIEKAFTWGRYHLAVTQRKEEEPSSSSIYNQNDPWTPTVDFTDFISNETIAGEDLVAWVTAGFLHIPHAEDIPNTVTVGNGVGFFLRPYNFFDEDPSFYSPDSIYFRKDQDVTDCEVNSLACLSQTANCVPDLPAFSHGGFTYK
- Km [1, 4]: 8.31 µM
- Vmax [1, 4]: 1.19 μmoles/min/mg prot
- Km [2, 4]: 4.38 ± 0.361 µM
- Vmax [2, 4]: 20.2 µmol/min/mg

B2: recombinant human VAP-1 (Homo sapiens) (protein)
chain: GRGGDGGEPSQLPHCPSVSPSAQPWTHPGQSQLFADLSREELTAVMRFLTQRLGPGLVDAAQARPSDNCVFSVELQLPPKAAALAHLDRGSPPPAREALAIVFFGRQPQPNVSELVVGPLPHPSYMRDVTVERHGGPLPYHRRPVLFQEYLDIDQMIFNRELPQASGLLHHCCFYKHRGRNLVTMTTAPRGLQSGDRATWFGLYYNISGAGFFLHHVGLELLVNHKALDPARWTIQKVFYQGRYYDSLAQLEAQFEAGLVNVVLIPDNGTGGSWSLKSPVPPGPAPPLQFYPQGPRFSVQGSRVASSLWTFSFGLGAFSGPRIFDVRFQGERLVYEISLQEALAIYGGNSPAAMTTRYVDGGFGMGKYTTPLTRGVDCPYLATYVDWHFLLESQAPKTIRDAFCVFEQNQGLPLRRHHSDLYSHYFGGLAETVLVVRSMSTLLNYDYVWDTVFHPSGAIEIRFYATGYISSAFLFGATGKYGNQVSEHTLGTVHTHSAHFKVDLDVAGLENWVWAEDMVFVPMAVPWSPEHQLQRLQVTRKLLEMEEQAAFLVGSATPRYLYLASNHSNKWGHPRGYRIQMLSFAGEPLPQNSSMARGFSWERYQLAVTQRKEEEPSSSSVFNQNDPWAPTVDFSDFINNETIAGKDLVAWVTAGFLHIPHAEDIPNTVTVGNGVGFFLRPYNFFDEDPSFYSADSIYFRGDQDAGACEVNPLACLPQAAACAPDLPAFSHGGFSHN
- Km [3]: 5510 ± 5510 µM
- Vmax [3]: 7.15 µmol/min/mg
- Km [1, 5]: 299 µM
- Vmax [1, 5]: 0.40 μmoles/min/mg prot
- Km [2, 5]: 45.3 ± 50.7 µM
- Vmax [2, 5]: 11.2 µmol/min/mg

B3: recombinant mouse VAP-1 (Mus musculus) (protein)
chain: RSGDGGGLSQPLHCPSVLPSVQPRTHPSQSQPFADLSPEELTAVMSFLTKHLGPGLVDAAQARPSDNCVFSVELQLPAKAAALAHLDRGGPPPVREALAIIFFGGQPKPNVSELVVGPLPHPSYMRDVTVERHGGPLPYYRRPVLDREYQDIEEMIFHRELPQASGLLHHCCFYKHQGQNLLTMTTAPRGLQSGDRATWFGLYYNLSGAGFYPHPIGLELLIDHKALDPALWTIQKVFYQGRYYESLTQLEDQFEAGLVNVVLVPNNGTGGSWSLKSSVPPGPAPPLQFHPQGPRFSVQGSQVSSSLWAFSFGLGAFSGPRIFDIRFQGERVAYEISVQEAIALYGGNSPASMSTCYVDGSFGIGKYSTPLIRGVDCPYLATYVDWHFLLESQAPKTLRDAFCVFEQNQGLPLRRHHSDFYSHYFGGVVGTVLVVRSVSTLLNYDYIWDMVFHPNGAIEVKFHATGYISSAFFFGAGEKFGNRVGAHTLGTVHTHSAHFKVDLDVAGLKNWAWAEDMAFVPTIVPWQPEYQMQRLQVTRKLLETEEEAAFPLGGATPRYLYLASNHSNKWGHRRGYRIQILSFAGKPLPQESPIEKAFTWGRYHLAVTQRKEEEPSSSSIFNQNDPWTPTVNFTDFISNETIAGEDLVAWVTAGFLHIPHAEDIPNTVTAGNSVGFFLRPYNFFDEDPSFHSADSIYFREGQDATACEVNPLACLSQTATCAPEIPAFSHGGFAYRDN
- Km [2, 6]: 13.1 ± 11.4 µM
- Vmax [2, 6]: 20.1 µmol/min/mg

— publication PMC7201828, “Comparison of Inhibitor and Substrate Selectivity between Rodent and Human Vascular Adhesion Protein-1” (Mediators of Inflammation, 2020)
